Literature values as cited in patent publication US20190350851A1, “DOSE RESPONSE, SURFACE MODIFIED NANOTUBES” (MOLECULAR REBAR DESIGN, LLC, priority 2018, published 2019).
Where two headings read alike, the source gives them in different places. Blank lines part the entries; values can stand above or below the molecule they belong to.

Conditions: in water

Molecule: Cytochrome C
Hydrodynamic Radius: 2.64 nm

Hydrodynamic Radius: 0.88 nm
Molecule: NC(=O)CC[C@@H]1NC(=O)[C@H](Cc2ccccc2)NC(=O)[C@H](Cc2ccc(O)cc2)NC(=O)CCSSC[C@@H](C(=O)N2CCC[C@H]2C(=O)N[C@H](CCCN=C(N)N)C(=O)NCC(N)=O)NC(=O)[C@H](CC(N)=O)NC1=O [Desmopressin, reference compound]

Molecule: Insulin
Hydrodynamic Radius: 2.1 nm

Hydrodynamic Radius: 0.33 nm
Molecule: O=C(O)c1cccnc1 [Niacin, reference compound]

Molecule: CN1CCCC1c1cccnc1 (centres unmarked) [Nicotine, reference compound]
Hydrodynamic Radius: 0.38 nm

Molecule: Bovine serum albumin
Hydrodynamic Radius: 7.0 nm
Hydrodynamic Radius (listed as bovine serum albumin): 7 nm

B1: Myoglobin (protein, UniProt P02144 2-154, looked up)
Myoglobin: GLSDGEWQLVLNVWGKVEADIPGHGQEVLIRLFKGHPETLEKFDKFKHLKSEDEMKASEDLKKHGATVLTALGGILKKKGHHEAEIKPLAQSHATKHKIPVKYLEFISECIIQVLQSKHPGDFGADAQGAMNKALELFRKDMASNYKELGFQG
Hydrodynamic Radius: 3.34 nm
